Test results reported in PMC6595482 (Molecular microbiology, 2018).

Biological target: E. coli RNA polymerase (E. coli) (UniProt P0A7Z4)
Sequence (P0A7Z4 whole entry, looked up): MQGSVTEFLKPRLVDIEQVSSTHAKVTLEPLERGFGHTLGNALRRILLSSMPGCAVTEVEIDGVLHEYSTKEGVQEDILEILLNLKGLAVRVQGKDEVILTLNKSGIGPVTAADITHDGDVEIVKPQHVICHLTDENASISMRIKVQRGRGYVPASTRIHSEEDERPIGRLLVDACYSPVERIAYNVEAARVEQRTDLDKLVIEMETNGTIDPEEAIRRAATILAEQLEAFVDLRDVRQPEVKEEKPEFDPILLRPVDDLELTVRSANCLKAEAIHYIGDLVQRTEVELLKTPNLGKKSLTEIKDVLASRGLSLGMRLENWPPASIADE

B1: Escherichia coli RfaH (natural protein)
chain: MQSWYLLYCKRGQLQRAQEHLERQAVNCLAPMITLEKIVRGKRTAVSEPLFPNYLFVEFDPEVIHTTTINATRGVSHFVRFGASPAIVPSAVIHQLSVYKPKDIVDPATPYPGDKVIITEGAFEGFQAIFTEPDGEARSMLLLNLINKEIKHSVKNTEFRKL
- Exo III footprinting of the upstream boundary of the ops TEC (100 nM RfaH): 7 nt
